These results are taken from article PMC12808100, “The non-catalytic DNA polymerase ε subunit is an NPF motif recognition protein” (Nature Communications, 2025).

For assay [1], the target named is His6-AviTag-MBP-TEV-POLE2, P56282. The assay is described as follows: nHU titration, dot blot. The conditions noted are these: chain shown with the change.
Assay [2] has as its target triple NPF motif peptide made from the DONSON sequence (human). Put plainly: native holdup (nHU) titration with western blot; biotinylated peptide bait on streptavidin resin, bait-saturated and control (biotin) resin mixed at various proportions; total Jurkat extract as analyte; 4 °C, 2 h; endogenous POLE and EPS15 left in the supernatant quantified by western blot; apparent dissociation constants. For orientation: In western blotting, separated proteins are transferred to a membrane and probed.

His6-AviTag-MBP-TEV-POLE2, P56282, sequence (P56282 whole entry): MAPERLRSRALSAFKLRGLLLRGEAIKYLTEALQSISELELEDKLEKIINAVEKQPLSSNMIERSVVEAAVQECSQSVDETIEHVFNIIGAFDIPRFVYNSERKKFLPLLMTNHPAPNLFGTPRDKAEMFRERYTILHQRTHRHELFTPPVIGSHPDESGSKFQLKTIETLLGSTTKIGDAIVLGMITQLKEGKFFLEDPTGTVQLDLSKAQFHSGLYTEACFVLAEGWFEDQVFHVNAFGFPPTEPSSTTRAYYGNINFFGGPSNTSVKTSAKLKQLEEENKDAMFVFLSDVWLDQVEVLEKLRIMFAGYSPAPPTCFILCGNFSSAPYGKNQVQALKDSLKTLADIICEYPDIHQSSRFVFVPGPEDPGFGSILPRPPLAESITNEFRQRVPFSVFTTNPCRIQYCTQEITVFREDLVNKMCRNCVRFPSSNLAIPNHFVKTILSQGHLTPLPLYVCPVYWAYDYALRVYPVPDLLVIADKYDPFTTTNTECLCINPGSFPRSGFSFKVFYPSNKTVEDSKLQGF

B1: HA-TTF2, full length, intact NPF motifs, Q9UNY4 NPF to KAF (protein)
chain: MEEVRCPEHGTFCFLKTGVRDGPNKGKSFYVCRADTCSFVRATDIPVSHCLLHEDFVVELQGLLLPQDKKEYRLFFRCIRSKAEGKRWCGSIPWQDPDSKEHSVSNKSQHASETFHHSSNWLRKAFKVLDKNQEPALWKQLIKGEGEEKKADKKQREKGDQLFDQKKEQKPEMMEKDLSSGLVPKKKQSVVQEKKQEEGAEIQCEAETGGTHKRDFSEIKSQQCQGNELTRPSASSQEKSSGKSQDVQRESEPLREKVTQLLPQNVHSHNSISKPQKGGPLNKEYTNWEAKETKAKDGPSIQATQKSLPQGHFQERPETHSVPAPGGPAAQAAPAAPGLSLGEGREAATSSDDEEEDDVVFVSSKPGSPLLFDSTLDLETKENLQFPDRSVQRKVSPASGVSKKVEPSDPVARRVYLTTQLKQKKSTLASVNIQALPDKGQKLIKQIQELEEVLSGLTLSPEQGTNEKSNSQVPQQSHFTKTTTGPPHLVPPQPLPRRGTQPVGSLELKSACQVTAGGSSQCYRGHTNQDHVHAVWKITSEAIGQLHRSLESCPGETVVAEDPAGLKVPLLLHQKQALAWLLWRESQKPQGGILADDMGLGKTLTMIALILTQKNQEKKEEKEKSTALTWLSKDDSCDFTSHGTLIICPASLIHHWKNEVEKRVNSNKLRVYLYHGPNRDSRARVLSTYDIVITTYSLVAKEIPTNKQEAEIPGANLNVEGTSTPLLRIAWARIILDEAHNVKNPRVQTSIAVCKLQACARWAVTGTPIQNNLLDMYSLLKFLRCSPFDEFNLWRSQVDNGSKKGGERLSILTKSLLLRRTKDQLDSTGRPLVILPQRKFQLHHLKLSEDEETVYNVFFARSRSALQSYLKRHESRGNQSGRSPNNPFSRVALEFGSEEPRHSEAADSPRSSTVHILSQLLRLRQCCCHLSLLKSALDPMELKGEGLVLSLEEQLSALTLSELRDSEPSSTVSLNGTFFKMELFEGMRESTKISSLLAELEAIQRNSASQKSVIVSQWTNMLKVVALHLKKHGLTYATIDGSVNPKQRMDLVEAFNHSRGPQVMLISLLAGGVGLNLTGGNHLFLLDMHWNPSLEDQACDRIYRVGQQKDVVIHRFVCEGTVEEKILQLQEKKKDLAKQVLSGSGESVTKLTLADLRVLFGI
In the case of B1, the Kd in assay [1] was found to be 1.1 µM.

B2: EPS15 (natural protein)
chain: MAAAAQLSLTQLSSGNPVYEKYYRQVDTGNTGRVLASDAAAFLKKSGLPDLILGKIWDLADTDGKGILNKQEFFVALRLVACAQNGLEVSLSSLNLAVPPPRFHDTSSPLLISGTSAAELPWAVKPEDKAKYDAIFDSLSPVNGFLSGDKVKPVLLNSKLPVDILGRVWELSDIDHDGMLDRDEFAVAMFLVYCALEKEPVPMSLPPALVPPSKRKTWVVSPAEKAKYDEIFLKTDKDMDGFVSGLEVREIFLKTGLPSTLLAHIWSLCDTKDCGKLSKDQFALAFHLISQKLIKGIDPPHVLTPEMIPPSDRASLQKNIIGSSPVADFSAIKELDTLNNEIVDLQREKNNVEQDLKEKEDTIKQRTSEVQDLQDEVQRENTNLQKLQAQKQQVQELLDELDEQKAQLEEQLKEVRKKCAEEAQLISSLKAELTSQESQISTYEEELAKAREELSRLQQETAELEESVESGKAQLEPLQQHLQDSQQEISSMQMKLMEMKDLENHNSQLNWCSSPHSILVNGATDYCSLSTSSSETANLNEHVEGQSNLESEPIHQESPARSSPELLPSGVTDENEVTTAVTEKVCSELDNNRHSKEEDPFNVDSSSLTGPVADTNLDFFQSDPFVGSDPFKDDPFGKIDPFGGDPFKGSDPFASDCFFRQSTDPFATSSTDPFSAANNSSITSVETLKHNDPFAPGGTVVAASDSATDPFASVFGNESFGGGFADFSTLSKVNNEDPFRSATSSSVSNVVITKNVFEETSVKSEDEPPALPPKIGTPTRPCPLPPGKRSINKLDSPDPFKLNDPFQPFPGNDSPKEKDPEIFCDPFTSATTTTNKEADPSNFANFSAYPSEEDMIEWAKRESEREEEQRLARLNQQEQEDLELAIALSKSEISEA
For B2, the Kd in assay [2] worked out at 0.8 µM.

B3: HA-WDHD1, full length, intact NPF motif, O75717 NPF to KAF (protein)
chain: MPATRKPMRYGHTEGHTEVCFDDSGSFIVTCGSDGDVRIWEDLDDDDPKFINVGEKAYSCALKSGKLVTAVSNNTIQVHTFPEGVPDGILTRFTTNANHVVFNGDGTKIAAGSSDFLVKIVDVMDSSQQKTFRGHDAPVLSLSFDPKDIFLASASCDGSVRVWQISDQTCAISWPLLQKCNDVINAKSICRLAWQPKSGKLLAIPVEKSVKLYRRESWSHQFDLSDNFISQTLNIVTWSPCGQYLAAGSINGLIIVWNVETKDCMERVKHEKGYAICGLAWHPTCGRISYTDAEGNLGLLENVCDPSGKTSSSKVSSRVEKDYNDLFDGDDMSNAGDFLNDNAVEIPSFSKGIINDDEDDEDLMMASGRPRQRSHILEDDENSVDISMLKTGSSLLKEEEEDGQEGSIHNLPLVTSQRPFYDGPMPTPRQKPFQSGSTPLHLTHRFMVWNSIGIIRCYNDEQDNAIDVEFHDTSIHHATHLSNTLNYTIADLSHEAILLACESTDELASKLHCLHFSSWDSSKEWIIDLPQNEDIEAICLGQGWAAAATSALLLRLFTIGGVQKEVFSLAGPVVSMAGHGEQLFIVYHRGTGFDGDQCLGVQLLELGKKKKQILHGDPLPLTRKSYLAWIGFSAEGTPCYVDSEGIVRMLNRGLGNTWTPICNTREHCKGKSDHYWVVGIHENPQQLRCIPCKGSRFPPTLPRPAVAILSFKLPYCQIATEKGQMEEQFWRSVIFHNHLDYLAKNGYEYEESTKNQATKEQQELLMKMLALSCKLEREFRCVELADLMTQNAVNLAIKYASRSRKLILAQKLSELAVEKAAELTATQVEEEEEEEDFRKKLNAGYSNTATEWSQPRFRNQVEEDAEDSGEADDEEKPEIHKPGQNSFSKSTNSSDVSAKSGAVTFSSQGRVKAFKVSASSKEPAMSMNSARSTNILDNMGKSSKKSTALSRTTNNEKSPIIKPLIPKPKPKQASAASYFQKRNSQTNKTEEVKEENLKNVLSETPAICPPQNTENQRPKTGFQMWLEENRSNILSDNPDFSDEADIIKEGMIRFRVLSTEERKVWANKAKGETASEGTEAKKRKRVVDESDETENQEEKAKENLNLSKKQKPLDFSTNQKLSAFAFKQE
In assay [1], B3 had a Kd of 32 µM.

B4: HA-ERCC6L, full length, intact NPF motif, Q2NKX8 NPF to KAF (protein)
chain: MEASRRFPEAEALSPEQAAHYLRYVKEAKEATKNGDLEEAFKLFNLAKDIFPNEKVLSRIQKIQEALEELAEQGDDEFTDVCNSGLLLYRELHNQLFEHQKEGIAFLYSLYRDGRKGGILADDMGLGKTVQIIAFLSGMFDASLVNHVLLIMPTNLINTWVKEFIKWTPGMRVKTFHGPSKDERTRNLNRIQQRNGVIITTYQMLINNWQQLSSFRGQEFVWDYVILDEAHKIKTSSTKSAICARAIPASNRLLLTGTPIQNNLQELWSLFDFACQGSLLGTLKTFKMEYENPITRAREKDATPGEKALGFKISENLMAIIKPYFLRRTKEDVQKKKSSNPEARLNEKNPDVDAICEMPSLSRKNDLIIWIRLVPLQEEIYRKFVSLDHIKELLMETRSPLAELGVLKKLCDHPRLLSARACCLLNLGTFSAQDGNEGEDSPDVDHIDQVTDDTLMEESGKMIFLMDLLKRLRDEGHQTLVFSQSRQILNIIERLLKNRHFKTLRIDGTVTHLLEREKRINLFQQNKDYSVFLLTTQVGGVGLTLTAATRVVIFDPSWNPATDAQAVDRVYRIGQKENVVVYRLITCGTVEEKIYRRQVFKDSLIRQTTGEKKNPFRYFSKQELRELFTIEDLQNSVTQLQLQSLHAAQRKSDIKLDEHIAYLQSLGIAGISDHDLMYTCDLSVKEELDVVEESHYIQQRVQKAQFLVEFESQNKEFLMEQQRTRNEGAWLREPVFPSSTKKKCPKLNKPQPQPSPLLSTHHTQEEDISSKMASVVIDDLPKEGEKQDLSSIKVNVTTLQDGKGTGSADSIATLPKGFGSVEELCTNSSLGMEKSFATKNEAVQKETLQEGPKQEALQEDPLESFNYVLSKSTKADIGPNLDQLKDDEILRHCNPWPIISITNESQNAESNVSIIEIADDLSASHSALQDAQASEAKLEEEPSASSPQYACDFNLFLEDSADNRQNFSSQSLEHVEKENSLCGSAPNSRAGFVHSKTCLSWEFSEKDDEPEEVVVKAKIRSKARRIVSDGEDEDDSFKDTSSIKAFNTSLFQFSSVKQFDASTPKNDISPPGRFFSSQIPSSVNKSMNSRRSLASRRSLINMVLDHVEDMEERLDDSSEAKGPEDYPEEGVEESSGEASKYTEEDPSGETLSSENKSSWLMTSKPSALAQETSLGAPEPLSGEQLVGSPQDKAAEATNDYETLVKRGKELKECGKIQEALNCLVKALDIKSADPEVMLLTLSLYKQLNNN
In the case of B4, the Kd in assay [1] came out at 23 µM.
